Laboratory results: patent US20110224139A1

Legend:
[1] = target: T1, Ac-…-CONH2 (RAD16-II) self-assembling peptide, as nanofiber hydrogel; test: in vitro binding experiment: release of 100 nM Alexa-488 labeled protein from a nanofiber hydrogel in culture inserts
T1 sequence (peptide, N-terminal acetyl (Ac); C-terminal amide (CONH2)): RARADADARARADADA

[2] = target: T2, SDF-1(S4V)-N-terminal peptide (first 8 amino acids of SDF-1(S4V), FRET peptide)
T2 chain: KPVVLSYR

[3] = target: T3, SDF-1-N-terminal peptide (first 8 amino acids of SDF-1, FRET peptide)
T3 chain: KPVSLSYR

[4] = target: Sumo-SDF-1(S4V)-RAD
[5] = target: Sumo-SDF-1-RAD

Alexa-488 labeled SSDF-1 (from UniProt P48061 22-89) (ligand)
percent released from the nanofibers over 24 hours [1]: 73%

B1: Human recombinant MMP-2 (R&D Systems), activated with 4-aminophenylmercuric acetate (protein)
chain: YNFFPRKPKWDKNQITYRIIGYTPDLDPETVDDAFARAFQVWSDVTPLRFSRIHDGEADIMINFGRWEHGDGYPFDGKDGLLAHAFAPGTGVGGDSHFDDDELWTLGEGQVVRVKYGNADGEYCKFPFLFNGKEYNSCTDTGRSDGFLWCSTTYNFEKDGKYGFCPHEALFTMGGNAEGQPCKFPFRFQGTSYDSCTTEGRTDGYRWCGTTEDYDRDKKYGFCPETAMSTVGGNSEGAPCVFPFTFLGNKYESCTSAGRSDGKMWCATTANYDDDRKWGFCPDQGYSLFLVAAHEFGHAMGLEHSQDPGALMAPIYTYTKNFRLSQDDIKGIQELYGASPDIDLGTGPTPTLGPVTPEICKQDIVFDGIAQIRGEIFFFKDRFIWRTVTPRDKPMGPLLVATFWPELPEKIDAVYEAPQEEKAVFFAGNEYWIYSASTLERGYPKPLTSLGLPPDVQRVDAAFNWSKNKKTYIFAGDKFWRYNEVKKKMDPGFPKLIADAWNAIPDNLDAVVDLQGGGHSYFFKGAYYLKLENQSLKSVKFGSIKSDWLGC
amount of peptide cleaved after 4 hours (FRET peptide cleavage) [2]: no significant amount (1±3 pmol)
initial cleavage rate [2]: 0.1±0.1×10^-10M s^-1
amount of peptide cleaved after 4 hours (FRET peptide cleavage) [3]: 205 ± 18 pmol
initial cleavage rate [3]: 2.0±0.1×10^-10M s^-1
rate of cleavage relative to SDF-1 (times lower), SDS-PAGE [4]: the rate of SDF-1(S4V) cleavage is at least 48 times lower than SDF-1
cleavage seen by SDS-PAGE [5]: more Sumo-SDF-1-RAD was cleaved within 1 hour than Sumo-SDF-1(S4V)-RAD in 48 hours
